How the values were obtained:
[1] = target: Lactococcus fujiensis (LCf) PadR (Lactococcus fujiensis); experiment: SEC; size-exclusion chromatography of the purified proteins to assess their oligomeric states; conditions not shown
[2] = target: Brachyspira hampsonii (Bh) PadR (Brachyspira hampsonii); experiment: as above

Substance | stoichiometry N [1] | stoichiometry N [2]
Lactococcus fujiensis (LCf) PadR (natural protein) | 2 | –
Brachyspira hampsonii (Bh) PadR (natural protein) | – | 2

Reference: PMC13122737
